Results from publication PMC9254573 (Biochemistry, 2022).
Ends that are not written are not given here.

Tests used:
CCR7 (Homo sapiens) [1] = assay: NMR; settings: cited from earlier work
CCR7 (Homo sapiens) [2] = assay: nanoDSF; settings: cited from earlier work
CCR7 (Homo sapiens) [3] = assay: nanoDSF; settings: cited from earlier work; remark: listed apart in the source
[4] = molecular target: CCR7 N-terminus (Homo sapiens) (UniProt P32248); assay: nanoDSF; settings: cited from earlier work
[5] = molecular target: T1, Recombinant human [U-15N] CCL19 (human, UniProt Q99731 22-98, uniformly 15N-labelled ([U-15N])); assay: NMR titration
T1 sequence (looked up): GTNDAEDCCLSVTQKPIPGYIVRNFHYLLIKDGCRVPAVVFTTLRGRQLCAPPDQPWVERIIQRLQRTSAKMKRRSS

CCR7 N-terminus (Homo sapiens), sequence (P32248 25-59): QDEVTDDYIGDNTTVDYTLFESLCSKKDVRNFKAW

CCL21 (from UniProt O00585)
Kd (CCR7 (Homo sapiens) [1]): 700000 nM

CCL19 (from UniProt Q99731)
Kd (CCR7 (Homo sapiens) [2]): 800 nM
Kd (CCR7 (Homo sapiens) [3]): 300 nM
Kd [4]: > 1000 nM

B1: CCR7 5-11 peptide (TDDYIGD-NH2) (peptide)
peptide: TDDYIGD-NH2
Kd [5]: 200000 ± 100000 nM
